In paper PMC2390755:

Target: TAP-tagged ISWI (D. melanogaster) (UniProt Q24368)
Assay: pull-down; tandem affinity purification of TAP-tagged ISWI from larval nuclear extracts (IPP150 buffer): IgG agarose, TEV cleavage, calmodulin resin, SDS elution; Western blot for ISWI, Sin3A, Rpd3; untagged extracts as control

Sequence of UniProt Q24368 (Q24368 whole entry): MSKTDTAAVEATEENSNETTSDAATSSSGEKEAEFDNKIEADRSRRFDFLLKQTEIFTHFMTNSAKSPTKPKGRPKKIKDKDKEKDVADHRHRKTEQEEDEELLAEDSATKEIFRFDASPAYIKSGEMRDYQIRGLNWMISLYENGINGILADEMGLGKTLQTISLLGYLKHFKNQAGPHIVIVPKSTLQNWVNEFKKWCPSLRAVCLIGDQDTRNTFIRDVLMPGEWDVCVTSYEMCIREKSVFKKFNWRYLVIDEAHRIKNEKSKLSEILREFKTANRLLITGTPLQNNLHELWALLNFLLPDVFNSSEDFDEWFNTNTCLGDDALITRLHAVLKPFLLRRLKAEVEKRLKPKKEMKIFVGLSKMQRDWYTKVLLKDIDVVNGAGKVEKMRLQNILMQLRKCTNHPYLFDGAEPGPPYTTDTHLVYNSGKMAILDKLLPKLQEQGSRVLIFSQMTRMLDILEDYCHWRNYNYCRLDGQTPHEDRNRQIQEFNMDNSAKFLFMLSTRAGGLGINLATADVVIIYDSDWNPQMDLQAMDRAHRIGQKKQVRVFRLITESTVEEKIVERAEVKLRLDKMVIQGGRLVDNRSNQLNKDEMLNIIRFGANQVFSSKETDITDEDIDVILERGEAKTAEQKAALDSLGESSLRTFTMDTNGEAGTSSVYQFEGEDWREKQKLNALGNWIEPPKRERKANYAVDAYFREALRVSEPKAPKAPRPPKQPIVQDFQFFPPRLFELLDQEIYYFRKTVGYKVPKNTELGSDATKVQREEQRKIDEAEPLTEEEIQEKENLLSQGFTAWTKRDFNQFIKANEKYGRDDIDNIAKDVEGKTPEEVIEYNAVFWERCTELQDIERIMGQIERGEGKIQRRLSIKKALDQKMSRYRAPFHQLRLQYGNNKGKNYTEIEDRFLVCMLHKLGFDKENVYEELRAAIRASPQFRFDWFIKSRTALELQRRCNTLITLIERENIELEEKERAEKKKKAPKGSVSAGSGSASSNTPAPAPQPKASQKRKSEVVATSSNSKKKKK

percent of the total protein in larval nuclear extract associated with ISWI (densitometry): 15%
Substance: Sin3A (natural protein)
